{
  "source": "patent US20250145697A1",
  "about": "(WASHINGTON UNIVERSITY, published 2025)",
  "key": {"[1]": {"target": "T1, murine ApoE (mouse, UniProt P08226 19-311)", "T1 sequence (looked up)": "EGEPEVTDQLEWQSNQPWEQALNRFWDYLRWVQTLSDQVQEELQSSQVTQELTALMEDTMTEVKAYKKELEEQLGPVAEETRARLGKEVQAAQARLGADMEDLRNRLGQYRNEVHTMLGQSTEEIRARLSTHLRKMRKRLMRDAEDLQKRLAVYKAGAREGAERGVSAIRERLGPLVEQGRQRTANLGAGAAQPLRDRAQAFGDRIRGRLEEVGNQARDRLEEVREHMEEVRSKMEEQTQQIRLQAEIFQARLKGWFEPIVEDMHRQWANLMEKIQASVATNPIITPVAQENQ", "assay": "Western blot of mouse brain lysates", "excerpt": "Brain lysates from apoE KO mice or mice expressing human apoE3, human apoE4 or murine apoE were immunoblotted with HJ151, HJ152, HJ153, and HJ154. A commercial apoE antibody GA-50 was used as a positive control."}, "[2]": {"target": "T2, recombinant alipidated human ApoE4 (human, UniProt P02649 19-317)", "T2 construct": "mature; full length recombinant protein made in E. coli or bought; biotinylated for SPR; position 112 is counted on the mature protein, not on the precursor entry; also called recApoE; non-lipidated ApoE4", "T2 sequence (P02649 19-317 C130R)": "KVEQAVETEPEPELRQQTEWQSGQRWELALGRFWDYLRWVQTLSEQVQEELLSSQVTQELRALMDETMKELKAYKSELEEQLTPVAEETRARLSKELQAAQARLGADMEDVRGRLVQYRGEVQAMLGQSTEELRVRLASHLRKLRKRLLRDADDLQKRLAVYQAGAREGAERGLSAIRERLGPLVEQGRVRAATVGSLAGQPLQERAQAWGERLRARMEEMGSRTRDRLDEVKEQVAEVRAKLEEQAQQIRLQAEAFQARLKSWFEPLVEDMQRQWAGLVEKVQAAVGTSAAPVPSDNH", "assay": "direct ELISA on coated recombinant alipidated ApoE (0.5 ug/ml)", "procedure": "(§1) ELISA dose response curves were generated for several anti-ApoE antibodies. Briefly, plates were coated overnight with full length recombinant alipidated ApoE2, ApoE3, or ApoE4 (0.5 μg/ml). The following days, plates were washed, blocked and then incubated with an anti-ApoE antibody. A goat, anti-mouse IgG-HRP antibody was used for secondary detection. Recombinant alipidated ApoE was either expressed solubly in E. coli and then purified, or purchased from a commercial supplier."}, "[3]": {"target": "T3, recombinant alipidated human ApoE3 (human, UniProt P02649 19-317)", "T3 construct": "mature; full length recombinant protein made in E. coli or bought", "T3 sequence (P02649 19-317)": "as the sequence (P02649 19-317 C130R) above, with R112C counted along it", "assay": "direct ELISA on coated recombinant alipidated ApoE (0.5 ug/ml)", "procedure": "as §1"}, "[4]": {"target": "T4, recombinant alipidated human ApoE2 (human, UniProt P02649 19-317)", "T4 construct": "mature; full length recombinant protein made in E. coli or bought", "T4 sequence (P02649 19-317 R176C)": "as the sequence (P02649 19-317 C130R) above, with R112C, R158C counted along it", "assay": "direct ELISA on coated recombinant alipidated ApoE (0.5 ug/ml)", "procedure": "as §1"}, "[5]": {"target": "T2, recombinant alipidated human ApoE4", "assay": "ELISA: untreated recombinant ApoE4 on the plate, antibody titrated, OD650", "procedure": "(§2) 1: untreated ApoE4. 2: ApoE4 that has been incubated at 40° C. for 24 hr. Supernatant(S) and pellet (P) from ultracentrifugation were resolved on SDS-PAGE and stained by Coomassie blue. (D) Binding of HJ156 to different preparations of ApoE4 loaded at the same concentration on the ELISA plate. Sup of untreated: Supernatant fraction of untreated ApoE4 from ultracentrifugation. Sup/Pel of 24h 40C: Supernatant/pellet fraction of ApoE4 incubated at 40° C. for 24 hour. (E) Binding of HJ156 to untreated and 40° C. incubated ApoE4 with and without denaturation by 1% SDS or 4M guanidine HCl.\n(§3) In order to test whether HJ151 and HJ156 bind to some form of ApoE in the brain, unfixed frozen brain sections from APPPS1/APOE4 or APPPS1/EKO mice using HJ151 and HJ156 (FIG. 38A). The presence of Aβ plaques was confirmed with Aβ immunostaining using anti-Aβ antibody HJ3.4 on the sections from the same brain. […] Next, the ability of HJ156 to bind to an aggregated form of ApoE induced by incubation at 40° C. was queried. The binding of untreated ApoE to HJ151, HJ153 or HJ156 was compared to the binding of ApoE incubated at 40° C. to HJ151, HJ153 or HJ156. HJ153 bound to untreated ApoE or ApoE incubated at 40° C. similarly while HJ151 and HJ156 preferentially bound to ApoE incubated at 40° C. (FIG. 38B). […] Solubilization of the ApoE aggregates reduced their binding to HJ156. […]"}, "[6]": {"target": "T5, heat-induced aggregates of ApoE4 (human, UniProt P02649 19-317)", "T5 construct": "mature; aggregated state of the recombinant protein; also called ApoE4 incubated at 40 C for 24 hr; heat-treated ApoE4", "T5 sequence (P02649 19-317 C130R)": "as the sequence (P02649 19-317 C130R) above", "assay": "ELISA: ApoE4 incubated at 40 C for 24 hr on the plate, antibody titrated, OD650", "procedure": "as §2, §3"}, "[7]": {"target": "T2, recombinant alipidated human ApoE4", "assay": "SPR, biotinylated recombinant apoE4 captured on a streptavidin chip; column Kd (1/s)", "procedure": "(§4) ELISA plates were coated with 0.5 μg/ml of recombinant apoE2 (square), apoE3 (open circle), or apoE4 (closed circle). Then different concentrations of (A) HJ151, (B) HJ153, (C) HJ154, or (D) HJ156 were loaded on the plates. Horse-radish peroxidase labeled goat anti-mouse secondary antibodies were used to detect binding. […] HJ151 is specific for ApoE4 and HJ156 binds only ApoE3 and ApoE4. FIG. 5E-H are graphs depicting surface plasmon resonance profiles for various antibodies. Anti-ApoE antibodies were serially diluted 3-fold (starting at 100 nM for HJ153 (E), and 1000 nM for HJ151 (F), and […] (G)) for detection of binding to biotinylated-recombinant apoE4 captured on a streptavidin chip. Samples were injected at a flow rate of 30 μl/minute. (H) Apparent KD values of HJ151, HJ153 and HJ156 were calculated based on the SPR experiment.\n(§5) ELISA plates were coated with 0.5 μg/ml of recombinant apoE2, apoE3, or apoE4. Then different concentrations of HJ151 (FIG. 5A), HJ153 (FIG. 5B), HJ154 (FIG. 5C), or HJ156 (FIG. 5D) were loaded on the plates. Horse-radish peroxidase labeled goat anti-mouse secondary antibodies were used to detect binding. […] HJ151 is specific for ApoE4 and HJ156 binds only ApoE3 and ApoE4. Surface plasmon resonance profiles for various antibodies was also performed."}, "[8]": {"target": "T2, recombinant alipidated human ApoE4", "assay": "SPR, biotinylated recombinant apoE4 captured on a streptavidin chip; column Ka (1/Ms)", "procedure": "as §4, §5"}, "[9]": {"target": "T2, recombinant alipidated human ApoE4", "assay": "SPR, biotinylated recombinant apoE4 captured on a streptavidin chip; column Apparent KD (M)", "procedure": "as §4, §5"}, "[10]": {"target": "T2, recombinant alipidated human ApoE4", "assay": "SPR (Biacore T200), biotinylated ApoE4 captured on anti-biotin mAb chip, antibody injected, 1:1 fit", "procedure": "The affinity of several anti-ApoE antibodies for ApoE4 was determined by surface plasmon resonance using a BIAcore T200. Anti-biotin monoclonal mouse antibody was immobilized on a Biacore Series S CM5 sensor chip. Biotinylated recombinant alipidated ApoE4 was then captured on to the chip. Serial dilutions of each antibody were injected at a flow rate of 30 μl/min. Each sample was analyzed, for example, with 3-minute association and 10-minute dissociation. After each injection the chip was regenerated using 3 M MgCl₂ or another appropriate buffer. Binding response was corrected by subtracting the response units (RUs) from a flow cell capturing an irrelevant IgG at similar density. A 1:1 Languir model of simultaneous fitting of Kₒₙ and Koff was used for kinetics analysis. Recombinant alipidated ApoE4 was either expressed in soluble form in E. coli and then purified, or purchased from a commercial supplier."}},
  "data": [
    {"binder": "HJ153 (antibody, V domains shown, murine monoclonal antibody from hybridoma; also called HJ153B (biotinylated)) VH: QVQLQQPGAELVKPGASVKLSCKASGYTFTSYWMHWVKQRPGRGLEWIGEIDPSDGFTYNNQNFKDKSTLTVDRSSGTAYLQLSSLTSEDSAVYYCAGSLGRIGLAYWGHGTLVTVSA VL: QIVLTQSPAIMSASPGEKVTISCSASSSVTYMYWYQQKPGASPKSWIYRTSNLASGVPARFSGSGSGTSYSLTISSMEAEDAATYYCQQFQSYPLTFGAGTKLELKR", "values": [
      {"measurement": "binding result", "setting": "[1]", "value": "no binding"},
      {"measurement": "EC50", "setting": "[2]", "value": 30, "unit": "pM"},
      {"measurement": "EC50", "setting": "[3]", "value": 20, "unit": "pM"},
      {"measurement": "EC50", "setting": "[4]", "value": 20, "unit": "pM"},
      {"measurement": "EC50 (read off the curve)", "setting": "[5]", "value": "~300", "unit": "pM"},
      {"measurement": "EC50 (read off the curve)", "setting": "[6]", "value": "~200", "unit": "pM"},
      {"measurement": "koff", "setting": "[7]", "value": 0.000211, "unit": "s⁻¹"},
      {"measurement": "kon", "setting": "[8]", "value": 662000, "unit": "M⁻¹ s⁻¹"},
      {"measurement": "Kd", "setting": "[9]", "value": 319, "unit": "pM"},
      {"measurement": "Kd", "setting": "[10]", "value": 430, "unit": "pM"},
      {"measurement": "koff", "setting": "[10]", "value": 0.000346, "unit": "s⁻¹"},
      {"measurement": "kon", "setting": "[10]", "value": 804000, "unit": "M⁻¹ s⁻¹"}
    ]}
  ]
}
